Measurements from patent US20250313625A1 (ELPISCIENCE SUZHOU BIOPHARMA, published 2025).

How the values were obtained:
[1] = target: T1, LAG3 D1 domain extra loop peptide (biotin labelled (site not stated)); experiment: ELISA format I: biotin labelled LAG3 D1 domain extra loop peptide on plate coated antibody; axis printed as Ab Conc. (nM)
T1 peptide: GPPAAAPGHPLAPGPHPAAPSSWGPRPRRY
Procedure: In ELISA binding assay of format I (FIG. 9A), biotin labelled LAG3 D1 domain extra loop peptide was incubated with ELISA microplate coated anti-LAG3 antibodies. After washing, HRP labeled anti-SA 2nd antibody (Sigma) was added and incubated at 37° C. for 1 hour. Then, 100 μl/well of TMB solution (Biotechnology) was added. After incubation for 15 minutes at room temperature, the reaction was stopped by the addition of 50 μl of 1N HCl. OD 450 nm was read. In ELISA binding assay of format II (FIG. 9B), biotin labelled LAG3 D1 domain extra loop peptide and anti-LAG3 antibodies were co-incubated in ELISA microplate coated with SA. After washing, HRP labeled anti-human Fc 2nd antibody (Sigma) was added and incubated at 37° C. for 1 hour. Then, 100 μl/well of TMB solution (Biotechnology) was added. After incubation for 15 minutes at room temperature, the reaction was stopped by the addition of 50 μl of 1N HCl. OD 450 nm was read.

[2] = target: T2, human LAG3, full length, stably expressed on cells (human, UniProt P18627 23-525); experiment: FACS on 293F cells stably expressing human LAG3
T2 construct: whole, on cells; also called CHOK1-human LAG3
T2 sequence (looked up): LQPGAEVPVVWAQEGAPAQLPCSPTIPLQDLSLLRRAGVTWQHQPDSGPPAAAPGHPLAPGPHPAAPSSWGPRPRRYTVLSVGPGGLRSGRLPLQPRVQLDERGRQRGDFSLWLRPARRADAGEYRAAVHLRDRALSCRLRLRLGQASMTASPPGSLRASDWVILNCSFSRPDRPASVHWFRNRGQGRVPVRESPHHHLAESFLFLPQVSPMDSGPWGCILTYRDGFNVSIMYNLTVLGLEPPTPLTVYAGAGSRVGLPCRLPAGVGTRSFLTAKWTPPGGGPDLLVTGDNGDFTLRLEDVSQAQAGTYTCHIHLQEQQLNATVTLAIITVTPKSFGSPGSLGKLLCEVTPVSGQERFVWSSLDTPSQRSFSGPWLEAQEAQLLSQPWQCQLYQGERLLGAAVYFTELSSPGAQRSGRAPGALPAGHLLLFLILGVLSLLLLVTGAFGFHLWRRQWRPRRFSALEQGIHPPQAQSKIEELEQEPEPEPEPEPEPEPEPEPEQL
Procedure: Briefly the antibodies were incubated with 2×10⁵ target cells at 4° C. for 1 hour. After washing, fluorescence labeled anti-mouse IgG 2nd antibody (Life Technologies) was added and incubated at 4° C. for 1 hour. Geometric median fluorescence intensity (MFI) was detected and EC₅₀ was calculated using GraphPad Prism9.0.
MFI was detected and EC₅₀ was calculated using GraphPad Prism9.0.

[3] = target: T3, human LAG3 (form used in Octet, Biacore and HDX-MS not given) (human, UniProt P18627 23-450, limits assumed); experiment: BLI (Octet), 1:1 fit
T3 sequence (looked up): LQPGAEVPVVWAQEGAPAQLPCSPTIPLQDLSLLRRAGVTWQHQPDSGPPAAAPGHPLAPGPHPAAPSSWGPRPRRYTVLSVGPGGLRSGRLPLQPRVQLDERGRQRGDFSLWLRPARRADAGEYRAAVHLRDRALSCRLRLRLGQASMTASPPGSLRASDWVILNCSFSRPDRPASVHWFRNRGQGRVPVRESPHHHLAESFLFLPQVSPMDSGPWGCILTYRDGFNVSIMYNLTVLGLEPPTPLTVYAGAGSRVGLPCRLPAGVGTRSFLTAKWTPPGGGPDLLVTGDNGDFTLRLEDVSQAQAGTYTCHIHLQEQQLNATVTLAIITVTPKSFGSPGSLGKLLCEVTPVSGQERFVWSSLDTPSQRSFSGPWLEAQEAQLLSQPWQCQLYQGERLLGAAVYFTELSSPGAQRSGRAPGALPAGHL
Procedure: The purified chimeric antibodies were characterized for binding affinity against human LAG3 using Bio-Layer Interferometry technology (Octet system). The association and dissociation curves were fit with 1:1 binding model, and the Ka/Kd/KD values for each antibody were calculated.

[4] = target: T4, hFc tagged human LAG3 ECD recombinant protein (human, UniProt P18627 23-450); experiment: competitive ELISA format II: biotin hFc-LAG3 ECD binding to coated His-FGL1
T4 construct: range 23-450; also called biotin labelled hFc tagged human LAG3 ECD; not shown: human IgG Fc tag
T4 sequence (looked up): T3 sequence (looked up)
Procedure: (§1) After washing, HRP labeled anti-His 2nd antibody (Sigma) was added and incubated at 37° C. for 1 hour. Then, 100 μl/well of TMB solution (Biotechnology) was added. After incubation for 15 minutes at room temperature, the reaction was stopped by the addition of 50 μl of 1N HCl. OD 450 nm was read. […] After washing, HRP labeled anti-SA 2nd antibody (Sigma) was added and incubated at 37° C. for 1 hour. Then, 100 μl/well of TMB solution (Biotechnology) was added. After incubation for 15 minutes at room temperature, the reaction was stopped by the addition of 50 μl of 1N HCl. OD 450 nm was read. […] The competition assay of format III is a competitive FACS assay. […] After washing, dye labeled anti-His 2nd antibody (Sigma) was added and incubated at 37° C. for 1 hour. Fluorescence intensity was detected.

[5] = target: T5, mFc tagged human LAG3 ECD recombinant protein (human, UniProt P18627 23-450); experiment: competitive FACS: mFc-LAG3 ECD binding to Raji cells (MHC II)
T5 construct: extracellular domain; purchased from Biointron; not shown: mouse IgG Fc (mFc) tag
T5 sequence (looked up): T3 sequence (looked up)
Procedure: Activity of the purified chimeric antibodies to block LAG3 and MHC II interaction was determined by competitive FACS assay. […] After washing, dye labeled anti-mouse Fc 2nd antibody (Sigma) was added and incubated at 37° C. for 1 hour. Fluorescence intensity was detected.

[6] = target: T4, hFc tagged human LAG3 ECD recombinant …; experiment: competitive ELISA format II: biotin labeled hFc tagged LAG3 ECD binding to plate coated His tagged human FGL1; 023c run beside 027c and 047c
Procedure: as §1

[7] = target: T2, human LAG3, full length, stably …; experiment: competitive FACS format III: His-FGL1 binding to 293F-human LAG3 cells
Procedure: as §1

- binding result [1]: no binding (tested: about 300 nM)
- EC50 [2]: 1.3 nM
- TOP MFI [2]: 387
- Kd [3]: 0.648 nM
- koff [3]: 0.000233 s⁻¹
- kon [3]: 359000 M⁻¹ s⁻¹
- IC50 [4]: 1.47 nM
- TOP blocking (%) [4]: 86.8%
- IC50 [5]: 6.2 nM
- TOP blocking (%) [5]: 99.2%
- IC50 (read off the curve) [6]: ~0.3 µg/mL
- Blocking ratio at 200 nM (%) [7]: 29%
B1: 023c (antibody, human IgG4, V domains shown)
VH: QIQLVQSGPVLKKPGETVKISCKASGYTFTESPMNWVKQAPGRGFKWMGMIYTDTGEPTYAEEFKGRFAFSLETSASTAYLQINNLKSEDTATYFCVSDYGSILYWYFDVWGTGTTVTVSS
VL: DIVMTQSHKFMSTSVGDRVSITCKASQDVSTAVAWYQQTPGQSPKLLIYSASYRYTGVPDRFTGSGSGTDFTFTISSVQAEDLAVYYCQQHYNSPPTFGAGTKLELK
notes: human IgG4 S228P / kappa chimeric antibody; also called chimeric antibody 023; ES005-023c; not shown: human kappa light chain constant region (pcDNA3.4-hIgGk vector)
